In paper PMC8317483:

Assays:
Nsp9COV19 (15N-labeled) [1] = target: T1, Nsp9COV19 (15N-labeled) (SARS-CoV-2, UniProt P0DTD1 4141-4253); experiment: 15N-1H HSQC NMR titration
Nsp9COV19 (15N-labeled) [2] = target: T1, Nsp9COV19 (15N-labeled); experiment: 15N-1H HSQC NMR titration; remark: listed apart in the source

Row | Binder | Kd (Nsp9COV19 (15N-labeled) [1]) | binding result (Nsp9COV19 (15N-labeled) [2])
1 | UUGGAGUU (ssRNA) [RNA.2 (8 nt ssRNA)] | ~550 µM | 
2 | AUUCG (ssRNA) [RNA.1 (5 nt ssRNA)] |  | binds
